The source of these data is the Human Domainome abundance scans (Beltran et al. 2025).

± gives the uncertainty stated by the source.

B1: Histone H1t, residues 44 to 112; numbered along this chain, P22492 (parent)
chain: VSKLITEALSVSQERVGMSLVALKKALAAAGYDVEKNNSRIKLSLKSLVNKGILVQTRGTGASGSFKLS

The series covers variants of B1. The series is described as follows: abundance fitness (aPCA) (normalised: wild type 0, dead -1); higher = more abundant; growth selection in yeast, the domain comes from the species named. Particulars: Homo sapiens.
On to VSKLITEALSVSQERVGMSLVALKKALAAAGYDVEKNNSRIKLSHKSLVNKGILVQTRGTGASGSFKLS [L45H], for which the abundance fitness was -1.2 ± 0.48.

In the case of VSKLITEALSVSQERVGMSLVALKKALAAAGYDVEKNNSRIKLSSKSLVNKGILVQTRGTGASGSFKLS [L45S], the abundance fitness was -0.742 ± 0.046. Under VSKLITEALSVSQERVGMSLVALKKALAAAGYDVEKNNSRIKLSAKSLVNKGILVQTRGTGASGSFKLS [L45A] stands -0.643 ± 0.082. On to VSKLITEALSVSQERVGMSLVALKKALAAAGYDVEKNNSRIKLSQKSLVNKGILVQTRGTGASGSFKLS [L45Q], for which the abundance fitness is -0.782 ± 0.24. With VSKLITEALSVSQERVGMSLVALKKALAAAGYDVEKNNSRIKLSIKSLVNKGILVQTRGTGASGSFKLS [L45I] the figure was -0.417 ± 0.28. Regarding VSKLITEALSVSQERVGMSLVALKKALAAAGYDVEKNNSRIKLSCKSLVNKGILVQTRGTGASGSFKLS [L45C], the abundance fitness is -0.425 ± 0.21. Turning to VSKLITEALSVSQERVGMSLVALKKALAAAGYDVEKNNSRIKLSFKSLVNKGILVQTRGTGASGSFKLS [L45F], the abundance fitness was -0.372 ± 0.081. On to VSKLITEALSVSQERVGMSLVALKKALAAAGYDVEKNNSRIKLSKKSLVNKGILVQTRGTGASGSFKLS [L45K], for which the abundance fitness was -0.859 ± 0.15. As to VSKLITEALSVSQERVGMSLVALKKALAAAGYDVEKNNSRIKLSVKSLVNKGILVQTRGTGASGSFKLS [L45V], the abundance fitness is -0.141 ± 0.11. As to VSKLITEALSVSQERVGMSLVALKKALAAAGYDVEKNNSRIKLSRKSLVNKGILVQTRGTGASGSFKLS [L45R], the abundance fitness was -0.915 ± 0.11. Under VSKLITEALSVSQERVGMSLVALKKALAAAGYDVEKNNSRIKLSLKALVNKGILVQTRGTGASGSFKLS [S47A] stands -0.049 ± 0.045; under VSKLITEALSVSQERVGMSLVALKKALAAAGYDVEKNNSRIKLSLKMLVNKGILVQTRGTGASGSFKLS [S47M], -0.05 ± 0.066. On to VSKLITEALSVSQERVGMSLVALKKALAAAGYDVEKNNSRIKLSLKCLVNKGILVQTRGTGASGSFKLS [S47C], for which the abundance fitness amounted to 0.036 ± 0.16. Regarding VSKLITEALSVSQERVGMSLVALKKALAAAGYDVEKNNSRIKLSLKELVNKGILVQTRGTGASGSFKLS [S47E], the abundance fitness came to 0.232 ± 0.1.

In the case of VSKLITEALSVSQERVGMSLVALKKALAAAGYDVEKNNSRIKLSLKLLVNKGILVQTRGTGASGSFKLS [S47L], the abundance fitness was -0.228 ± 0.033. On to VSKLITEALSVSQERVGMSLVALKKALAAAGYDVEKNNSRIKLSLKHLVNKGILVQTRGTGASGSFKLS [S47H], for which the abundance fitness was -0.13 ± 0.082. With VSKLITEALSVSQERVGMSLVALKKALAAAGYDVEKNNSRIKLSLKGLVNKGILVQTRGTGASGSFKLS [S47G] the figure was -0.465 ± 0.12; with VSKLITEALSVSQERVGMSLVALKKALAAAGYDVEKNNSRIKLSLKRLVNKGILVQTRGTGASGSFKLS [S47R], -0.087 ± 0.058. Under VSKLITEALSVSQERVGMSLVALKKALAAAGYDVEKNNSRIKLSLKTLVNKGILVQTRGTGASGSFKLS [S47T] stands 0.01 ± 0.043.

In the case of VSKLITEALSVSQERVGMSLVALKKALAAAGYDVEKNNSRIKLSLKKLVNKGILVQTRGTGASGSFKLS [S47K], the abundance fitness was -0.191 ± 0.089.

As to VSKLITEALSVSQERVGMSLVALKKALAAAGYDVEKNNSRIKLSLKWLVNKGILVQTRGTGASGSFKLS [S47W], the abundance fitness was -0.143 ± 0.09. As for VSKLITEALSVSQERVGMSLVALKKALAAAGYDVEKNNSRIKLSLKDLVNKGILVQTRGTGASGSFKLS [S47D], the abundance fitness was -0.07 ± 0.18. Under VSKLITEALSVSQERVGMSLVALKKALAAAGYDVEKNNSRIKLSLKILVNKGILVQTRGTGASGSFKLS [S47I] stands -0.587 ± 0.24; under VSKLITEALSVSQERVGMSLVALKKALAAAGYDVEKNNSRIKLSLKVLVNKGILVQTRGTGASGSFKLS [S47V], -0.307 ± 0.071; under VSKLITEALSVSQERVGMSLVALKKALAAAGYDVEKNNSRIKLSLKFLVNKGILVQTRGTGASGSFKLS [S47F], -0.41 ± 0.1. With VSKLITEALSVSQERVGMSLVALKKALAAAGYDVEKNNSRIKLSLKNLVNKGILVQTRGTGASGSFKLS [S47N] the figure was -0.156 ± 0.22; with VSKLITEALSVSQERVGMSLVALKKALAAAGYDVEKNNSRIKLSLKYLVNKGILVQTRGTGASGSFKLS [S47Y], -0.23 ± 0.11. With VSKLITEALSVSQERVGMSLVALKKALAAAGYDVEKNNSRIKLSLKQLVNKGILVQTRGTGASGSFKLS [S47Q], the abundance fitness amounted to 0.02 ± 0.041.

Regarding VSKLITEALSVSQERVGMSLVALKKALAAAGYDVEKNNSRIKLTLKSLVNKGILVQTRGTGASGSFKLS [S44T], the abundance fitness worked out at 0.081 ± 0.036. With VSKLITEALSVSQERVGMSLVALKKALAAAGYDVEKNNSRIKLPLKSLVNKGILVQTRGTGASGSFKLS [S44P] the figure was -0.636 ± 0.046. For the variant VSKLITEALSVSQERVGMSLVALKKALAAAGYDVEKNNSRIKLVLKSLVNKGILVQTRGTGASGSFKLS [S44V], the abundance fitness came out at 0.16 ± 0.23. Regarding VSKLITEALSVSQERVGMSLVALKKALAAAGYDVEKNNSRIKLQLKSLVNKGILVQTRGTGASGSFKLS [S44Q], the abundance fitness was -0.072 ± 0.046. With VSKLITEALSVSQERVGMSLVALKKALAAAGYDVEKNNSRIKLRLKSLVNKGILVQTRGTGASGSFKLS [S44R] the figure was -0.173 ± 0.12; with VSKLITEALSVSQERVGMSLVALKKALAAAGYDVEKNNSRIKLMLKSLVNKGILVQTRGTGASGSFKLS [S44M], -0.047 ± 0.065.

VSKLITEALSVSQERVGMSLVALKKALAAAGYDVEKNNSRIKLLLKSLVNKGILVQTRGTGASGSFKLS [S44L]: the abundance fitness is -0.108 ± 0.055. With VSKLITEALSVSQERVGMSLVALKKALAAAGYDVEKNNSRIKLNLKSLVNKGILVQTRGTGASGSFKLS [S44N] the figure was -0.148 ± 0.043; with VSKLITEALSVSQERVGMSLVALKKALAAAGYDVEKNNSRIKLYLKSLVNKGILVQTRGTGASGSFKLS [S44Y], -0.279 ± 0.072. With VSKLITEALSVSQERVGMSLVALKKALAAAGYDVEKNNSRIKLWLKSLVNKGILVQTRGTGASGSFKLS [S44W] the figure was -0.426 ± 0.24; with VSKLITEALSVSQERVGMSLVALKKALAAAGYDVEKNNSRIKLILKSLVNKGILVQTRGTGASGSFKLS [S44I], -0.239 ± 0.072.
